This is an account of results in patent US20130089554A1 (EMERGENT PRODUCT DEVELOPMENT SEATTLE, published 2013).

Assay [1] has as its target T1, recombinant RON Sema-PSI protein (R&D Systems #1947-MS) (human, UniProt Q04912 25-571).
T1 construct: Bought protein, expressed in NS0 cells; not shown: carboxyl-terminal histidine tag
Briefly: ELISA, plate coated with 1 µg/ml recombinant RON Sema-PSI. As to the method:
(§1) To determine binding of murine antibodies to the Sema-PSI domain of RON, 96-well EIA/RIA microplates were coated with 1 μg/ml recombinant RON Sema-PSI (R&D Systems #1947-MS, Minneapolis, Minn.). This protein includes the Sema and PSI domains of human RON (Glu 25-Leu 571; see SEQ ID NO:784) coupled to a carboxyl-terminal histidine tag and expressed in the NS0 mouse myeloma cell line. Plates were blocked with 10% FBS in DPBS prior to adding hybridoma supernatants diluted […] in serum diluent. Murine antibodies bound to recombinant RON Sema-PSI were detected as described above.
(§2) “Diluent only” samples represent background binding in each assay when only serum diluent was run as the sample. As a positive control for IgG measurement and recombinant RON Sema-PSI binding, 250 ng/ml of an anti-human RON antibody (R&D Systems #MAB691, Minneapolis, Minn.) was tested in both ELISAs.
On the technique in general: ELISA stands for enzyme-linked immunosorbent assay.

Assay [2] has as its target T2, human RON (recepteur d'origine Nantaise, MST1R), full length on cells (human, UniProt Q04912 25-1400).
T2 construct: Over-expressed on transfected NIH/3T3 cells, or native on BxPC-3 and MDA-MB-453 cells; also called native human RON
Kind of assay: flow cytometry, NIH/3T3 cells transfected with human RON, hybridoma supernatant. An excerpt:
NIH/3T3 cells transfected with human or macaque RON or empty vector, were dissociated with trypsin and stained at 1.6×10⁵ cells/sample on ice with hybridoma supernatants or purified antibodies diluted in Staining Buffer (2% FBS in Dulbecco's PBS). Unlabeled murine IgG (SouthernBiotech, Birmingham, Ala.) and the DX07 anti-RON β-chain antibody (Santa Cruz Biotechnology, Santa Cruz, Calif.) were employed as negative and positive controls respectively. Murine antibodies were detected with R-PE-conjugated goat anti-mouse IgG (SouthernBiotech). Samples were analyzed on a BD FACSCalibur flow cytometer fitted with an HTS using PlateManager and CellQuest Pro software (BD Biosciences, San Jose, Calif.). Data was plotted using FlowJo software (Tree Star, Ashland, Oreg.).
NIH/3T3 cells transfected with empty vector (dashed), human RON (dotted) or Macaca mulatta RON (solid) were stained with secondary antibody alone (FIG. 1A), 1 mg/ml murine IgG (FIG. 1B), 1 mg/ml DX07 anti-RON antibody (FIG. 1C), RON-e01 anti-RON hybridoma supernatant (FIG. 1D) or RON-f01 anti-RON hybridoma supernatant (FIG. 1E).
On the technique in general: Flow cytometry measures light scatter and fluorescence of single cells or particles in a stream.

The target of assay [3] is T3, RON Sema-PSI-AFH protein (human, UniProt Q04912 25-568).
T3 construct: Produced in CHOK1SV cells; also called soluble RON Sema-PSI-AFH; not shown: c-terminal tag including avidin, 3xFLAG and 6x histidine tags
T3 chain: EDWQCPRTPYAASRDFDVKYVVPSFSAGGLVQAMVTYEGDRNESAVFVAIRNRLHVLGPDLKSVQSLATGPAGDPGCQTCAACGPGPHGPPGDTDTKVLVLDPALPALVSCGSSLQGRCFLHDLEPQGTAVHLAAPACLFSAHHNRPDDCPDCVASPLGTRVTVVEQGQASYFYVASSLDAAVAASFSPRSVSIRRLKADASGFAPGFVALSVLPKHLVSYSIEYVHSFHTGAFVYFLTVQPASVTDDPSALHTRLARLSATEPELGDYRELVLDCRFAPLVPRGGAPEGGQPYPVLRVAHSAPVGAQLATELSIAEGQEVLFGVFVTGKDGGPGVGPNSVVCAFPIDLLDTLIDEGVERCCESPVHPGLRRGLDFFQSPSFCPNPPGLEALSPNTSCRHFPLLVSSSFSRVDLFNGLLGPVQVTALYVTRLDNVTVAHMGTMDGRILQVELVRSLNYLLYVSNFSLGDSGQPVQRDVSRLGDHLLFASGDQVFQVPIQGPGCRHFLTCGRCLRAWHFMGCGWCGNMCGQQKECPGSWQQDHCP
Briefly: SPR (Biacore T100); Interceptor captured by immobilized anti-human Fc, soluble RON Sema-PSI-AFH flowed over. As to the method:
(§3) The binding kinetics of RON-f murine antibody, SMIP and Interceptor to soluble RON Sema-PSI-AFH were determined using a Biacore T100 (GE Healthcare, Piscataway, N.J.). Anti-RON murine antibody was captured using immobilized anti-mouse Fc polyclonal antibody while the SMIP and Interceptor were captured by anti-human Fc monoclonal antibody. The capture antibodies, both from GE Healthcare, were covalently conjugated to a carboxylmethyl dextran surface (CM4) via amines using N-ethyl-N′-(3-dimethylaminopropyl)-carbodiimide hydrochloride and N-hydroxysuccinimide. The unoccupied sites of the activated surface were blocked by ethanolamine. […] During each cycle, a single concentration of soluble RON Sema-PSI-AFH was injected and then allowed to dissociate. At the end of each cycle, the surface was regenerated gently using 3M MgCl₂ which dissociates protein bound to the capture antibodies. Signal associated with binding to the reference cell was used to subtract for bulk refractive changes and blank (buffer-only) injections were used to correct for drift and system noise.
(§4) Kinetic parameters and affinities were determined using BIAevaluation software. The kₐ (M⁻¹s⁻¹) and kd (s⁻¹) rates of the interaction were used to calculate the affinity constant, KD (M), of the antibody/receptor interaction. The KD is defined as the ratio of the kd and kₐ constants (kd/kₐ). The RON-f01 murine antibody was tested in a single experiment while the RON-f02 SMIP and RON-f03 Interceptor molecules were each tested in three independent experiments. RON-f molecules were captured on a sensor chip with immobilized anti-Fc while soluble RON Sema-PSI-AFH protein was flowed over the surface at varying concentrations.

In assay [4] the target is T3, RON Sema-PSI-AFH protein. Briefly: SPR (Biacore T100); antibody captured by immobilized anti-mouse Fc, soluble RON Sema-PSI-AFH flowed over. As to the method:
as §3, §4

Assay [5] concerns the target T1, recombinant RON Sema-PSI protein (R&D …). Briefly: ELISA, plate coated with 1 µg/ml recombinant RON Sema-PSI, hybridoma supernatants. As to the method:
as §1, §2

B1: RON-e01 murine antibody (11H09 hybridoma) (antibody, V domains shown)
VH: QVQLQQSGAELAKPGASVKMSCKSSGYTFTSYWIHWVKERPGQGLEWIGYIYPTTGYTESNQKFKDKATLTADKSSSTAYMQLSSLTSEDSAVYYCFLLRPWYFDVWGAGTTVTVSS
VL: DIQMTQSPSSLSASLGERVSLTCRASQDIGSSLSWLQQEPDGTIKRLIYSTSSLDSGVPKRFSGSRSGSDYSLTISSLESEDFVDYYCLQYASSPWTFGGGTKLEIK
notes: Murine monoclonal antibody from a hybridoma, used as supernatant or purified; also called RON-e01 Antibody
Consider B1, for which the binding result in assay [1] was “no binding”; in assay [2], “binds”.

B2: RON-f03 Interceptor (4C04 scFv, Interceptor Pair 2) (other)
chain 1: DIQMTQSPASQSASLGESVTITCLASQTIGTWLAWYQQKPGKSPQLLIYAATSLADGVPSRFSASGSGTKFSFKIDSLQSEDFVSYYCQQLYNTPWTFGGGTKLEIKGGGGSGGGGSGGGGSQIQLQQSGPELVKPGTSVKISCKASDYTLTDFYMNWVRQKPGQGLEWIGRIYPGTDKTRYNEKFRDKAILTVDTSSSTAYMQLSSLTSEDTAVYFCARSAYYGNYVAMDYWGQGTSVTVSSSASTKGPSVFPLAPSSKSTSGGTAALGCLVKDYFPEPVTVSWNSGALTSGVHTFPAVLQSSGLYSLSSVVTVPSSSLGTQTYICNVNHKPSNTKVDKKVRTEPKSSDKTHTCPPCPSGAPELLGGPSVFLFPPKPKDTLMISRTPEVTCVVVDVSHEDPEVKFNWYVDGVEVHNAKTKPREEQYNSTYRVVSVLTVLHQDWLNGKEYKCKVSNKALPAPIEKTISKAKGQPREPQVYTLPPSRDELTKNQVSLTCLVKGFYPSDIAVEWESNGQPENNYKTTPPVLDSDGSFFLYSKLTVDKSRWQQGNVFSCSVMHEALHNHYTQKSLSLSPGKSRTVAAPSVFIFPPSDEQLKSGTASVVCLLNNFYPREAKVQWKVDNALQSGNSQESVTEQDSKDSTYSLSSTLTLSKADYEKHKVYACEVTHQGLSSPVTKSFNRGE
chain 2: TVAAPSVFIFPPSDEQLKSGTASVVCLLNNFYPREAKVQWKVDNALQSGNSQESVTEQDSKDSTYSLSSTLTLSKADYEKHKVYACEVTHQGLSSPVTKSFNRGERTEPKSSDKTHTCPPCPSGAPELLGGPSVFLFPPKPKDTLMISRTPEVTCVVVDVSHEDPEVKFNWYVDGVEVHNAKTKPREEQYNSTYRVVSVLTVLHQDWLNGKEYKCKVSNKALPAPIEKTISKAKGQPREPQVYTLPPSRDELTKNQVSLTCLVKGFYPSDIAVEWESNGQPENNYKTTPPVLDSDGSFFLYSKLTVDKSRWQQGNVFSCSVMHEALHNHYTQKSLSLSPGKSRASTKGPSVFPLAPSSKSTSGGTAALGCLVKDYFPEPVTVSWNSGALTSGVHTFPAVLQSSGLYSLSSVVTVPSSSLGTQTYICNVNHKPSNTKVDKKV
notes: also called RON-f03 2nd generation interceptor
For B2, in the assay with RON Sema-PSI-AFH protein [3], the Kd (in general, a measure of binding affinity in units of concentration) is 0.156 nM; the koff (usually the first-order rate constant of dissociation) was found to be 6.78e-05 s⁻¹; the on-rate (kon) (as a rule, a measure of how fast the partners come together) worked out at 434000 M⁻¹ s⁻¹.

B3: RON-f01 murine antibody (4C04 hybridoma) (antibody, V domains shown)
VH: QIQLQQSGPELVKPGTSVKISCKASDYTLTDFYMNWVRQKPGQGLEWIGRIYPGTDKTRYNEKFRDKAILTVDTSSSTAYMQLSSLTSEDTAVYFCARSAYYGNYVAMDYWGQGTSVTVSL
VL: DIQMTQSPASQSASLGESVTITCLASQTIGTWLAWYQQKPGKSPQLLIYAATSLADGVPSRFSASGSGTKFSFKIDSLQSEDFVSYYCQQLYNTPWTFGGGTKLEIK
notes: Murine monoclonal antibody from a hybridoma; also called RON-f01 Antibody
In the assay with RON Sema-PSI-AFH protein [4], B3 displayed a Kd of 0.15 nM, a koff of 9.49e-05 s⁻¹ and a kon of 632000 M⁻¹ s⁻¹. In addition, the binding result in assay [2] was “binds”. Further, in assay [5], the binding result is listed as “binds”.
